Measurements: patent publication US20150299281A1 (ZEALAND PHARMA A S, published 2015)
Numbered stars: 1 amine (or outer) side, 2 acyl side, 3 side chain; on linkers, the order of the positions; unused ones are H or OH. Square brackets hold non-standard residues; d marks the D form. Side chains are listed from the residue outwards. * marks the point of attachment. γGlu = O=C(O)[C@H](CCC(=O)[*:2])N[*:1]; Palmitoyl = CCCCCCCCCCCCCCCC(=O)*; pGlu = O=C1CC[C@@H](C(=O)O)N1; Aib = CC(C)(N)C(=O)O

T1: human GIP receptor (human, UniProt P48546 22-466)
T1 sequence (looked up): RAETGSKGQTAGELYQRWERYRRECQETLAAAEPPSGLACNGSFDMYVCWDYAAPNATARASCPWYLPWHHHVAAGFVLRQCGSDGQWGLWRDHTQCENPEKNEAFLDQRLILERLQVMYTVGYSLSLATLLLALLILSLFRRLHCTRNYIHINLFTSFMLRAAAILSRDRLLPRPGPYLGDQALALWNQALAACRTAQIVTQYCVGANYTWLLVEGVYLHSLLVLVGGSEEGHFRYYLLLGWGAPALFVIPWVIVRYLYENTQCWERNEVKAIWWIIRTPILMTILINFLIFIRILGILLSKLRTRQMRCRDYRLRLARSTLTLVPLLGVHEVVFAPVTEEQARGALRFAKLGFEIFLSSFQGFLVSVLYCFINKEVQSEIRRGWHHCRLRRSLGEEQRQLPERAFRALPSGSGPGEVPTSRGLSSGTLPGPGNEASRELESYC


Legend:
human GIP receptor = molecular target: T1, human GIP receptor; experiment: cell-based or functional assay
human GLP-1 receptor = human GLP-1 receptor (human, UniProt P43220 24-463); experiment: cell-based or functional assay

Row | Binder | EC50, cAMP induction in HEK293 cells expressing human GIP R (human GIP receptor) [nM] | EC50, cAMP induction in HEK293 cells expressing human GLP-1 R (human GLP-1 receptor) [nM]
1 | H-Y[Aib]EGTFTSDYSIYLEKK([γGlu-Palmitoyl])AAKEFVEWLLSAGPSSGAPPPS-NH2 (SMILES CCCCCCCCCCCCCCCC(=O)N[C@@H](CCC(=O)NCCCC[C@H](NC(=O)[C@H](CCCCN)NC(=O)[C@H](CCC(=O)O)NC(=O)[C@H](CC(C)C)NC(=O)[C@H](Cc1ccc(O)cc1)NC(=O)[C@@H](NC(=O)[C@H](CO)NC(=O)[C@H](Cc1ccc(O)cc1)NC(=O)[C@H](CC(=O)O)NC(=O)[C@H](CO)NC(=O)[C@@H](NC(=O)[C@H](Cc1ccccc1)NC(=O)[C@@H](NC(=O)CNC(=O)[C@H](CCC(=O)O)NC(=O)C(C)(C)NC(=O)[C@@H](N)Cc1ccc(O)cc1)[C@@H](C)O)[C@@H](C)O)[C@@H](C)CC)C(=O)N[C@@H](C)C(=O)N[C@@H](C)C(=O)N[C@@H](CCCCN)C(=O)N[C@@H](CCC(=O)O)C(=O)N[C@@H](Cc1ccccc1)C(=O)N[C@H](C(=O)N[C@@H](CCC(=O)O)C(=O)N[C@@H](Cc1c[nH]c2ccccc12)C(=O)N[C@@H](CC(C)C)C(=O)N[C@@H](CC(C)C)C(=O)N[C@@H](CO)C(=O)N[C@@H](C)C(=O)NCC(=O)N1CCC[C@H]1C(=O)N[C@@H](CO)C(=O)N[C@@H](CO)C(=O)NCC(=O)N[C@@H](C)C(=O)N1CCC[C@H]1C(=O)N1CCC[C@H]1C(=O)N1CCC[C@H]1C(=O)N[C@@H](CO)C(N)=O)C(C)C)C(=O)O) [Compound 54] | 0.037 | 0.033
2 | H-Y[Aib]EGTFTSDYLIYLDKKAQRAFVNWLLA[Aib]K-NH2 (SMILES CC[C@H](C)[C@H](NC(=O)[C@H](CC(C)C)NC(=O)[C@H](Cc1ccc(O)cc1)NC(=O)[C@H](CC(=O)O)NC(=O)[C@H](CO)NC(=O)[C@@H](NC(=O)[C@H](Cc1ccccc1)NC(=O)[C@@H](NC(=O)CNC(=O)[C@H](CCC(=O)O)NC(=O)C(C)(C)NC(=O)[C@@H](N)Cc1ccc(O)cc1)[C@@H](C)O)[C@@H](C)O)C(=O)N[C@@H](Cc1ccc(O)cc1)C(=O)N[C@@H](CC(C)C)C(=O)N[C@@H](CC(=O)O)C(=O)N[C@@H](CCCCN)C(=O)N[C@@H](CCCCN)C(=O)N[C@@H](C)C(=O)N[C@@H](CCC(N)=O)C(=O)N[C@@H](CCCNC(=N)N)C(=O)N[C@@H](C)C(=O)N[C@@H](Cc1ccccc1)C(=O)N[C@H](C(=O)N[C@@H](CC(N)=O)C(=O)N[C@@H](Cc1c[nH]c2ccccc12)C(=O)N[C@@H](CC(C)C)C(=O)N[C@@H](CC(C)C)C(=O)N[C@@H](C)C(=O)NC(C)(C)C(=O)N[C@@H](CCCCN)C(N)=O)C(C)C) [Compound 11] | 0.76 | 0.47
3 | H-YGEGTFTSDYSIYLDKKAQRAFVNWLLA[Aib]K-NH2 (SMILES CC[C@H](C)[C@H](NC(=O)[C@H](CO)NC(=O)[C@H](Cc1ccc(O)cc1)NC(=O)[C@H](CC(=O)O)NC(=O)[C@H](CO)NC(=O)[C@@H](NC(=O)[C@H](Cc1ccccc1)NC(=O)[C@@H](NC(=O)CNC(=O)[C@H](CCC(=O)O)NC(=O)CNC(=O)[C@@H](N)Cc1ccc(O)cc1)[C@@H](C)O)[C@@H](C)O)C(=O)N[C@@H](Cc1ccc(O)cc1)C(=O)N[C@@H](CC(C)C)C(=O)N[C@@H](CC(=O)O)C(=O)N[C@@H](CCCCN)C(=O)N[C@@H](CCCCN)C(=O)N[C@@H](C)C(=O)N[C@@H](CCC(N)=O)C(=O)N[C@@H](CCCNC(=N)N)C(=O)N[C@@H](C)C(=O)N[C@@H](Cc1ccccc1)C(=O)N[C@H](C(=O)N[C@@H](CC(N)=O)C(=O)N[C@@H](Cc1c[nH]c2ccccc12)C(=O)N[C@@H](CC(C)C)C(=O)N[C@@H](CC(C)C)C(=O)N[C@@H](C)C(=O)NC(C)(C)C(=O)N[C@@H](CCCCN)C(N)=O)C(C)C) [Compound 7] | 0.21 | 0.024
4 | H-Y[Aib]EGTFTSDYSIYLDSKAAHDFVEWLLSAGPSSGAPPPS-NH2 (SMILES CC[C@H](C)[C@H](NC(=O)[C@H](CO)NC(=O)[C@H](Cc1ccc(O)cc1)NC(=O)[C@H](CC(=O)O)NC(=O)[C@H](CO)NC(=O)[C@@H](NC(=O)[C@H](Cc1ccccc1)NC(=O)[C@@H](NC(=O)CNC(=O)[C@H](CCC(=O)O)NC(=O)C(C)(C)NC(=O)[C@@H](N)Cc1ccc(O)cc1)[C@@H](C)O)[C@@H](C)O)C(=O)N[C@@H](Cc1ccc(O)cc1)C(=O)N[C@@H](CC(C)C)C(=O)N[C@@H](CC(=O)O)C(=O)N[C@@H](CO)C(=O)N[C@@H](CCCCN)C(=O)N[C@@H](C)C(=O)N[C@@H](C)C(=O)N[C@@H](Cc1c[nH]cn1)C(=O)N[C@@H](CC(=O)O)C(=O)N[C@@H](Cc1ccccc1)C(=O)N[C@H](C(=O)N[C@@H](CCC(=O)O)C(=O)N[C@@H](Cc1c[nH]c2ccccc12)C(=O)N[C@@H](CC(C)C)C(=O)N[C@@H](CC(C)C)C(=O)N[C@@H](CO)C(=O)N[C@@H](C)C(=O)NCC(=O)N1CCC[C@H]1C(=O)N[C@@H](CO)C(=O)N[C@@H](CO)C(=O)NCC(=O)N[C@@H](C)C(=O)N1CCC[C@H]1C(=O)N1CCC[C@H]1C(=O)N1CCC[C@H]1C(=O)N[C@@H](CO)C(N)=O)C(C)C) [Compound 55] | 0.0071 | 0.0087
5 | [pGlu]YAEGTFTSDYSIYLDKKAQRAFVNWLLA[Aib]K-NH2 (SMILES CC[C@H](C)[C@H](NC(=O)[C@H](CO)NC(=O)[C@H](Cc1ccc(O)cc1)NC(=O)[C@H](CC(=O)O)NC(=O)[C@H](CO)NC(=O)[C@@H](NC(=O)[C@H](Cc1ccccc1)NC(=O)[C@@H](NC(=O)CNC(=O)[C@H](CCC(=O)O)NC(=O)[C@H](C)NC(=O)[C@H](Cc1ccc(O)cc1)NC(=O)[C@@H]1CCC(=O)N1)[C@@H](C)O)[C@@H](C)O)C(=O)N[C@@H](Cc1ccc(O)cc1)C(=O)N[C@@H](CC(C)C)C(=O)N[C@@H](CC(=O)O)C(=O)N[C@@H](CCCCN)C(=O)N[C@@H](CCCCN)C(=O)N[C@@H](C)C(=O)N[C@@H](CCC(N)=O)C(=O)N[C@@H](CCCNC(=N)N)C(=O)N[C@@H](C)C(=O)N[C@@H](Cc1ccccc1)C(=O)N[C@H](C(=O)N[C@@H](CC(N)=O)C(=O)N[C@@H](Cc1c[nH]c2ccccc12)C(=O)N[C@@H](CC(C)C)C(=O)N[C@@H](CC(C)C)C(=O)N[C@@H](C)C(=O)NC(C)(C)C(=O)N[C@@H](CCCCN)C(N)=O)C(C)C) [Compound 6] | 0.27 | 0.97
6 | H-Y[Aib]EGTFTSDYSIALDKKAQRAFVNWLLA[Aib]K-NH2 (SMILES CC[C@H](C)[C@H](NC(=O)[C@H](CO)NC(=O)[C@H](Cc1ccc(O)cc1)NC(=O)[C@H](CC(=O)O)NC(=O)[C@H](CO)NC(=O)[C@@H](NC(=O)[C@H](Cc1ccccc1)NC(=O)[C@@H](NC(=O)CNC(=O)[C@H](CCC(=O)O)NC(=O)C(C)(C)NC(=O)[C@@H](N)Cc1ccc(O)cc1)[C@@H](C)O)[C@@H](C)O)C(=O)N[C@@H](C)C(=O)N[C@@H](CC(C)C)C(=O)N[C@@H](CC(=O)O)C(=O)N[C@@H](CCCCN)C(=O)N[C@@H](CCCCN)C(=O)N[C@@H](C)C(=O)N[C@@H](CCC(N)=O)C(=O)N[C@@H](CCCNC(=N)N)C(=O)N[C@@H](C)C(=O)N[C@@H](Cc1ccccc1)C(=O)N[C@H](C(=O)N[C@@H](CC(N)=O)C(=O)N[C@@H](Cc1c[nH]c2ccccc12)C(=O)N[C@@H](CC(C)C)C(=O)N[C@@H](CC(C)C)C(=O)N[C@@H](C)C(=O)NC(C)(C)C(=O)N[C@@H](CCCCN)C(N)=O)C(C)C) [Compound 12] | 0.05 | 0.01
7 | H-Y[Aib]EGTFSSDYSIYLDKKAQRAFVNWLLA[Aib]K-NH2 (SMILES CC[C@H](C)[C@H](NC(=O)[C@H](CO)NC(=O)[C@H](Cc1ccc(O)cc1)NC(=O)[C@H](CC(=O)O)NC(=O)[C@H](CO)NC(=O)[C@H](CO)NC(=O)[C@H](Cc1ccccc1)NC(=O)[C@@H](NC(=O)CNC(=O)[C@H](CCC(=O)O)NC(=O)C(C)(C)NC(=O)[C@@H](N)Cc1ccc(O)cc1)[C@@H](C)O)C(=O)N[C@@H](Cc1ccc(O)cc1)C(=O)N[C@@H](CC(C)C)C(=O)N[C@@H](CC(=O)O)C(=O)N[C@@H](CCCCN)C(=O)N[C@@H](CCCCN)C(=O)N[C@@H](C)C(=O)N[C@@H](CCC(N)=O)C(=O)N[C@@H](CCCNC(=N)N)C(=O)N[C@@H](C)C(=O)N[C@@H](Cc1ccccc1)C(=O)N[C@H](C(=O)N[C@@H](CC(N)=O)C(=O)N[C@@H](Cc1c[nH]c2ccccc12)C(=O)N[C@@H](CC(C)C)C(=O)N[C@@H](CC(C)C)C(=O)N[C@@H](C)C(=O)NC(C)(C)C(=O)N[C@@H](CCCCN)C(N)=O)C(C)C) [Compound 8] | 0.1 | 0.029
